Values quoted from earlier work in publication PMC5830908.
Where two headings read alike, the source gives them in different places.

Tests used:
[1] = biological target: K-Ras (Homo sapiens) (UniProt P01116)
[2] = biological target: K-Ras (Homo sapiens) (UniProt P01116); remark: listed apart in the source

- Kd [1]: 51 nM
- Kd [2]: 700 nM
Substance: KRpep-2
